Results on 167 variants are retold here after the RNAGym collection of RNA variant scans (doi:10.7554/elife.90254).

B1: OR4K15 (parent)
chain: GUUAACGGUCAUAGGCCAUGGAAACUAGGAGCACCAUUUCGCUGCCAGUGAAGAAAUGAACAAAGAAAAUCUGGGCCAGGCAGGCAUCAAAAGAAAUAGUCUUGCGCUCAACCAGAAAGUCUGUAAUCAUUUUAAGGGUA

Variants of B1 are the subject of this series. In words: self-cleavage, relative activity (ratio to wild type); higher = more cleavage; in vitro, sequencing; the parent is a self-cleaving ribozyme.
For A13U A51G, the self-cleavage was 1.53. In the case of A11G G58U, the self-cleavage was found to be 0.79. Take A11G U127C: the self-cleavage was 0.63. With U12C U43C the figure was 1.34; with U12C U43A, 0.93.

Consider U12C A95G, for which the self-cleavage came to 1.57. Next, U12A U122A: 0.62; U12A U72A: 0.36.

In the case of A11G U103A, the self-cleavage turned out to be 0.77. As to U12C A24G, the self-cleavage is 1.09. Next, A11U A68G: 0.99; U12C U100G: 1.34; U12C U100C: 1.4. As for A13C A51U, the self-cleavage was 1.65. With A11U A67G the figure was 1.5; with A13U A111G, 0.03; with A13G U127A, 1.91. As to U12G A24G, the self-cleavage turned out to be 1.1. For the variant U12C A56G, the self-cleavage is 0.93. In the case of A13U A90C, the self-cleavage came out at 1.69. For the variant A11U A78G, the self-cleavage stood at 0.31. Take A11U A78U: the self-cleavage is 0.49. Next, U12C A118G: 0.61. Next, A11G C32G: 0.61. With U12C U131C the figure was 1.28. Take A11U A82U: the self-cleavage is 0.31. Next, A13U A54G: 0.73. With A13U C34U the figure was 1.2; with A11U A64G, 1.56; with A13G A111G, 0.15. With U12C A94U the figure was 1.8.

Consider A13G G75C, for which the self-cleavage worked out at 0.43.

Take G14A A23G: the self-cleavage turned out to be 0.8.

Turning to A13U U97C, the self-cleavage worked out at 1.4. With A11U U49A, the self-cleavage amounted to 0.68. Next, A11U U49G: 1.14; A11G G48A: 1.9. With U12A C77U the figure was 1.45; with A11G U57C, 0.63; with A11G G50U, 1.02. Next, U12C U130A: 1.45; U12C A135C: 0.84. As to U12C A135G, the self-cleavage was determined as 1.25.

In the case of A13C U122G, the self-cleavage stood at 2.12. With A13C U122C the figure was 1.03. With U12A A24G the figure was 0.69; with U12C A68G, 1.21; with U12C A90G, 0.97. Next, U12C U97A: 1.6; A13C U139C: 1.48. Consider A11U U37C, for which the self-cleavage came out at 1.01. With A13U A18C the figure was 1.62; with A13G G104A, 0.06. As for A13G A86C, the self-cleavage was 0.5. Next, A13G A86G: 0.89; A13U A59G: 0.41; U12C A98G: 0.74. For A11U A129G, the self-cleavage came out at 1.27. With A11U A129U the figure was 0.64.

As for A11U U120C, the self-cleavage is 0.69.

As for U12A A22C, the self-cleavage came out at 1.51.

For A13G A95U, the self-cleavage is 2.06. As to A13G A95G, the self-cleavage is 1. With A13U G80C the figure was 0.26. With A13U G73A the figure was 0.16; with U12C A18G, 0.87.

In the case of U12C A18U, the self-cleavage was found to be 1.3.

Regarding U12C A126C, the self-cleavage worked out at 0.42.

As for U12C A126U, the self-cleavage came out at 0.52. With A13G A23G the figure was 1.3; with U12A A118G, 1.04; with A13U A22U, 1.45. With A13U A22G the figure was 1.38; with G14A A18G, 1.29; with U12C U102A, 1.94. Next, U12A U139C: 1.59; U12C A63C: 1.12. Consider U12C A63G, for which the self-cleavage came to 1.43. With A13G C61U the figure was 0.68.

Turning to A13U A66G, the self-cleavage came to 1.49.

A11G U120A: the self-cleavage is 0.58. Next, U12A U37C: 1.96.

For A13C U132C, the self-cleavage is 1.06. Next, A13G A27G: 1.15; A11U A36U: 0.78. With A13G C85U the figure was 0.89; with G14A A36U, 0.83; with A13G A78G, 0.52. Next, A13G G123C: 1.35. For A13G G123U, the self-cleavage was 1.33. With A13U A30G the figure was 1.26.

A13G A67G: the self-cleavage worked out at 1. Next, A13G A67C: 0.22; A11U A33G: 0.98.

With A11U A52C, the self-cleavage worked out at 1.27. With A13G A36U the figure was 0.67; with U12A U130C, 1.21. A13U U132C: the self-cleavage was determined as 2.18. Next, A13U U132A: 0.96; A13G A91U: 0.92; A13G A91G: 0.9.

Regarding A13G A91C, the self-cleavage was found to be 1.81. With U12A A78G the figure was 0.2. For A13U U38C, the self-cleavage turned out to be 0.61.

Regarding U12C G28U, the self-cleavage worked out at 0.66.

As to A13G U38C, the self-cleavage worked out at 1.14. Next, A13C A60G: 1.39; A13U A129U: 0.73; U12A C109U: 0.24. For the variant A11U A116U, the self-cleavage was 0.5. Take A11U A125G: the self-cleavage is 1.3.

On to A13G A96G, for which the self-cleavage was found to be 0.9.

For U12A A95G, the self-cleavage stood at 1.29.

On to A13G A129G, for which the self-cleavage worked out at 0.85. With A11G A92G the figure was 1.1; with A11G A92U, 1.26. A11G G14A: the self-cleavage came out at 1.31. With U12C A59U the figure was 0.65.

Consider A13G U72C, for which the self-cleavage is 0.54.

Turning to A13C U120C, the self-cleavage turned out to be 1.78.

U12A U26C: the self-cleavage worked out at 2.17. With A13G A140G the figure was 0.62. With A13G A140C the figure was 1.31; with A11G U12C, 1.07. With A13G A117G the figure was 1.11; with A13G U87A, 0.92; with A11G U19C, 0.56.

Regarding A11G U19A, the self-cleavage is 1.08.

On to U12C A67G, for which the self-cleavage was 1.33.

Regarding A11U C40A, the self-cleavage turned out to be 1.2. For U12A G138A, the self-cleavage came to 1.5. Next, A13G G20A: 0.94; A13U U49C: 1.28; U12C A86G: 0.8. For the variant A13G A51U, the self-cleavage came to 0.66.

For U12C A30U, the self-cleavage was determined as 1.21.

For U12C A30G, the self-cleavage amounted to 1.28. With U12A A63G the figure was 0.6; with U12C A96U, 1.32; with U12G A27C, 1.

Regarding A13G A30G, the self-cleavage was determined as 1. With A13G A30U the figure was 1.14; with A13G A55G, 0.97; with A13G A55U, 1.2. In the case of A11U G41A, the self-cleavage worked out at 0.96. As to A11U A24G, the self-cleavage amounted to 1.7.

Turning to A11U A98U, the self-cleavage amounted to 1.82. For U12A U131C, the self-cleavage was 2.37. With A11G C85A the figure was 1.53; with A11G U72C, 0.21; with U12A A55U, 2.25. Take U12A A55G: the self-cleavage amounted to 1.3.

Turning to A13U C107U, the self-cleavage is 0.

Turning to A11G U131G, the self-cleavage was determined as 1.52. For A13G, the self-cleavage amounted to 0.79. Next, A13U: 1.11. Regarding A13C, the self-cleavage came to 1.33. With A13U U127C the figure was 0.75.

As for A13U A67G, the self-cleavage turned out to be 1.14. With A11U A90U the figure was 1.19; with A13U A117G, 2.05; with A11G C61A, 0.69.

With U12C U124C, the self-cleavage was found to be 0.67. Next, U12A A94G: 1.12. For the variant A11G G73A, the self-cleavage amounted to 0.14. Take A11U U108C: the self-cleavage was 0.01.

Regarding A11U U108A, the self-cleavage worked out at 0.02.
